This note sets out measurements from publication PMC8368038 (The Journal of Biological Chemistry, 2021).

To fix the notation:
B1: KANK1_ANKRD^SF (Trx-tagged) (domain or fragment, mouse, UniProt E9Q238 1081-1360, looked up)
chain: EPEKEEIRERYELSEKMLSACNLLKYNIKDPKALASKDMRICLNTLQHDWFRVSSQKSAVPAMVGDYIAAFEAVSPDVLRYIINMADGNGNTALHYSVFHSNFQIVKLLLDADVCNVDHQNKAGYTPIMLAALAAVEAEKDMQVVEELFSCGDVNAKASQAGQTALMLAVSHGRIDMVKGLLACGADVNIQDDEGSTALMCASEHGHVEIVKLLLAQPGCNGHLEDNDGSTALSIALEAGHKDIAVLLYAHLNFSKAQSPSTPRLGRKTSPGPTHRGSFD

The target in one experiment is eIF4A1 Q148L (mouse, UniProt P60843 1-406, Q148L). In words: ITC. For orientation: Isothermal titration calorimetry measures the heat released or taken up as one component is titrated into another.
Experiment [1] addresses eukaryotic translation initiation factor 4A1 (eIF4A1), Trx-tagged (mouse, UniProt P60843 1-406). In words: ITC.
The target in experiment [2] is B1. In words: SEC. A general note: Size exclusion chromatography separates by hydrodynamic size, large species first.
Experiment [3] concerns the target eIF4A1_NTD (residues 1-238, crystallised) (mouse, UniProt P60843 1-238). In words: crystal structure.

In general, Kd refers to the constant that tells how readily two partners part at equilibrium. Lower therefore signals a tighter complex. B1 had a Kd with eIF4A1 Q148L of 1900 nM. Also, the binding result in experiment [1] is “binds”.

B2: eIF4A1 NTD (residues 1-237) (domain or fragment, mouse, UniProt P60843 1-237, looked up)
chain: MSASQDSRSRDNGPDGMEPEGVIESNWNEIVDSFDDMNLSESLLRGIYAYGFEKPSAIQQRAILPCIKGYDVIAQAQSGTGKTATFAISILQQIELDLKATQALVLAPTRELAQQIQKVVMALGDYMGASCHACIGGTNVRAEVQKLQMEAPHIIVGTPGRVFDMLNRRYLSPKYIKMFVLDEADEMLSRGFKDQIYDIFQKLNSNTQVVLLSATMPSDVLEVTKKFMRDPIRILVK
B2: the binding result in experiment [2] is listed as “binds”.

B3: KANK1_ANKRD^SF (residues 1088-1338, crystallised) (domain or fragment, mouse, UniProt E9Q238 1088-1338, looked up)
chain: RERYELSEKMLSACNLLKYNIKDPKALASKDMRICLNTLQHDWFRVSSQKSAVPAMVGDYIAAFEAVSPDVLRYIINMADGNGNTALHYSVFHSNFQIVKLLLDADVCNVDHQNKAGYTPIMLAALAAVEAEKDMQVVEELFSCGDVNAKASQAGQTALMLAVSHGRIDMVKGLLACGADVNIQDDEGSTALMCASEHGHVEIVKLLLAQPGCNGHLEDNDGSTALSIALEAGHKDIAVLLYAHLNFSKAQ
The term stoichiometry N denotes a count of units in the complex or per binding partner. In the case of B3, the “stoichiometry N” value in experiment [3] amounted to 1.
